These results are taken from patent publication EP4703474A1, “ANTI-LRRC15 ANTIBODY” (priority 2023, dated 2024).

For assay [1], the system named is Gastric carcinoma cell line NCI-N87. The experiment in a line: In vivo antitumor effect, NCI-N87 subcutaneous transplant model. Particulars: 0.4 mg/kg, tail vein, on Day 10, female SCID mice. The protocol: (§1) The antitumor effects of the antibody-drug conjugates were evaluated by using animal models in which cells of a human tumor cell line had been transplanted into immunodeficient mice, or cells of a mouse tumor cell line had been transplanted into immunocompetent mice. 4 to 6 Week-old SCID mice (CB17/Icr-Prkdc[scid]/CrlCrlj, Jackson Laboratory Japan, Inc.), NSG mice (NOD.Cg-Prkdcscid Il2rgtm1Wjl/SzJ, Jackson Laboratory Japan, Inc.), or B6J mice (C57BL/6J, Jackson Laboratory Japan, Inc.) were habituated for 3 days or more under SPF conditions before experimental use. The mice were fed with sterilized solid feed and given sterilized tap water. The major and minor diameters of the transplanted tumors were measured twice a week with an electronic digital caliper (Mitutoyo Corporation), and the estimated tumor volume was calculated using the following formula. Estimated tumor volume (mm^3) = 1/2 × major diameter (mm) × [minor diameter (mm)]^2 All antibody-drug conjugates were diluted with ABS and administered into the tail vein at doses shown in each Example. In addition, ABS (vehicle) or control hIgG-PBD prepared in Reference Example 4 was administered as the control group, in a similar manner. 5 to 6 Mice were used per group in the experiment. To analyze the LRRC15 expression in mouse tumor models, immunohistochemical staining of LRRC15 was performed. […]

For assay [2], the system named is Pancreatic carcinoma cell line BxPC-3 and human adipose tissue-derived mesenchymal stem cells. Nature of the assay: In vivo antitumor effect, BxPC-3 co-transplanted with mesenchymal stem cells. To be noted: BxPC-3 and MSC at 1:3; 0.4 mg/kg, tail vein, on Day 27; female SCID mice. The protocol: as §1

B1: H02L01-V1-PBD (conjugate)
heavy: EVQLVESGGGLVQPGGSLRLSCAASGFTFRDYYMAWVRQAPGKGLEWVSSIGFDESRTYYADSVKGRFTISRDDSKNTLYLQMNSLRAEDTAVYYCARHGVSKYSGDNWFAYWGQGTLVTVSSASTKGPSVFPLAPSSKSTSGGTAALGCLVKDYFPEPVTVSWNSGALTSGVHTFPAVLQSSGLYSLSSVVTVPSSSLGTQTYICNVNHKPSNTKVDKKVEPKSCDKTHTCPPCPAPEAAGGPSVFLFPPKPKDTLMISRTPEVTCVVVDVSHEDPEVKFNWYVDGVEVHNAKTKPREEQYNSTYRVVSVLTVLHQDWLNGKEYKCKVSNKALAAPIEKTISKAKGQPREPQVYTLPPSREEMTKNQVSLTCLVKGFYPSDIAVEWESNGQPENNYKTTPPVLDSDGSFFLYSKLTVDKSRWQQGNVFSCSVMHEALHNHYTQKSLSLSPGK
light: DIQMTQSPSSLSASVGDRVTITCKSSQGLLYSGDQKNYLAWYQQKPGKAPKLLIYWASTRQSGVPSRFSGSGSGTDFTLTISSLQPEDFATYYCQQYYDPPYTFGQGTKVEIKRTVAAPSVFIFPPSDEQLKSGTASVVCLLNNFYPREAKVQWKVDNALQSGNSQESVTEQDSKDSTYSLSSTLTLSKADYEKHKVYACEVTHQGLSSPVTKSFNRGEC
As to B1, the “antitumor effect (estimated tumor volume)” value in assay [1] is “antitumor activity higher than that of the vehicle”; in assay [2] it was “antitumor activity higher than that of the vehicle and control hIgG-PBD”.
